B1: … (SEQ ID NO: 138) (peptide)
peptide: VYNAVSTSF
B2: … (SEQ ID NO: 104) (peptide)
peptide: SYLTWHQQI
B3: … (SEQ ID NO: 139) (peptide)
peptide: IFGIFPNQF
B4: … (SEQ ID NO: 148) (peptide)
peptide: SYGTVSQIF
B5: … (SEQ ID NO: 117) (peptide)
peptide: IYLSDLTYI
B6: … (SEQ ID NO: 125) (peptide)
peptide: VFSRDFGLLVF
B7: … (SEQ ID NO: 136) (peptide)
peptide: IYPEWPVVFF
B8: … (SEQ ID NO: 131) (peptide)
peptide: EYLDRIGQLFF
B9: … (SEQ ID NO: 105) (peptide)
peptide: IYNETITDLL
B10: … (SEQ ID NO: 152) (peptide)
peptide: KFFDDLGDELLF
B11: … (SEQ ID NO: 119) (peptide)
peptide: VYRVYVTTF
B12: … (SEQ ID NO: 146) (peptide)
peptide: NYYERIHAL
B13: … (SEQ ID NO: 108) (peptide)
peptide: PYLVVIHTL
B14: … (SEQ ID NO: 113) (peptide)
peptide: IYSFHTLSF
B15: … (SEQ ID NO: 124) (peptide)
peptide: TYKDYVDLF
B16: … (SEQ ID NO: 118) (peptide)
peptide: KYLNSVQYI
B17: … (SEQ ID NO: 115) (peptide)
peptide: RYLNKSFVL
B18: … (SEQ ID NO: 100) (peptide)
peptide: VYIESRIGTSTSF
B19: … (SEQ ID NO: 103) (peptide)
peptide: NYIPVKNGKQF
B20: … (SEQ ID NO: 98) (peptide)
peptide: VFPRLHNVLF
B21: … (SEQ ID NO: 145) (peptide)
peptide: VYALKVRTI
B22: … (SEQ ID NO: 96) (peptide)
peptide: YYTQYSQTI
B23: … (SEQ ID NO: 106) (peptide)
peptide: IYNETVRDLL
B24: … (SEQ ID NO: 147) (peptide)
peptide: LYLAFPLAF
B25: … (SEQ ID NO: 132) (peptide)
peptide: RYPALFPVL
B26: … (SEQ ID NO: 116) (peptide)
peptide: AYVIAVHLF
B27: … (SEQ ID NO: 123) (peptide)
peptide: VYTPVLEHL
B28: … (SEQ ID NO: 153) (peptide)
peptide: VYVPFGGKSMITF
B29: … (SEQ ID NO: 111) (peptide)
peptide: VYVQILQKL
B30: … (SEQ ID NO: 141) (peptide)
peptide: SYNGHLTIWF
B31: … (SEQ ID NO: 154) (peptide)
peptide: VYGVPTPHF
B32: … (SEQ ID NO: 129) (peptide)
peptide: KYIDYLMTW
B33: … (SEQ ID NO: 114) (peptide)
peptide: QYLDGTWSL
B34: … (SEQ ID NO: 107) (peptide)
peptide: KYFPYLVVI
B35: … (SEQ ID NO: 122) (peptide)
peptide: EYQARIPEF
B36: … (SEQ ID NO: 134) (peptide)
peptide: AYIPTPIYF
B37: … (SEQ ID NO: 99) (peptide)
peptide: QYILAVPVL
B38: … (SEQ ID NO: 102) (peptide)
peptide: VYPFENFEF
B39: … (SEQ ID NO: 120) (peptide)
peptide: GYIEHFSLW
B40: … (SEQ ID NO: 143) (peptide)
peptide: KYIFQLNEI
B41: SYGTVSQI (SEQ ID NO: 149) (peptide)
peptide: SYGTVSQI
B42: … (SEQ ID NO: 140) (peptide)
peptide: RYLINSYDF
B43: … (SEQ ID NO: 121) (peptide)
peptide: RYGLPAAWSTF
B44: … (SEQ ID NO: 144) (peptide)
peptide: VFASLPGFLF
B45: … (SEQ ID NO: 109) (peptide)
peptide: LFITGGQFF
B46: … (SEQ ID NO: 155) (peptide)
peptide: IYKWITDNF
B47: … (SEQ ID NO: 135) (peptide)
peptide: VYEAMVPLF
B48: … (SEQ ID NO: 137) (peptide)
peptide: EYLHNCSYF
B49: … (SEQ ID NO: 128) (peptide)
peptide: VYPFDWQYI
B50: … (SEQ ID NO: 97) (peptide)
peptide: TYTFLKETF
B51: … (SEQ ID NO: 133) (peptide)
peptide: KYLEDMKTYF
B52: … (SEQ ID NO: 110) (peptide)
peptide: SYPKIIEEF
B53: … (SEQ ID NO: 127) (peptide)
peptide: QYFTGNPLF
B54: … (SEQ ID NO: 112) (peptide)
peptide: IYNFVESKL

These binders were tested against HLA-A*24 (human) (assay: UV-exchange ELISA, exchange yield grade).
For B1, the peptide exchange yield was 20 to 49%.
Binder B2 has a peptide exchange yield of over 75%.
Work on B3 yielded a peptide exchange yield of 50 to 75%.
B4 showed a peptide exchange yield of over 75%.
With B5 the peptide exchange yield was 50 to 75%.
With B6 the peptide exchange yield was 50 to 75%.
Work on B7 yielded a peptide exchange yield of 50 to 75%.
Binder B8 has a peptide exchange yield of 50 to 75%.
With B9 the peptide exchange yield was 50 to 75%.
Binder B10 has a peptide exchange yield of 20 to 49%.
Binder B11 has a peptide exchange yield of 50 to 75%.
With B12 the peptide exchange yield was 50 to 75%.
B13 gave a peptide exchange yield of 50 to 75%.
Binder B14 has a peptide exchange yield of 50 to 75%.
For B15, the peptide exchange yield was under 20%.
In the case of B16, the peptide exchange yield is reported as 50 to 75%.
Work on B17 yielded a peptide exchange yield of 50 to 75%.
Binder B18 has a peptide exchange yield of 50 to 75%.
B19 gave a peptide exchange yield of 50 to 75%.
B20 showed a peptide exchange yield of 50 to 75%.
For B21, the peptide exchange yield was 50 to 75%.
B22 showed a peptide exchange yield of over 75%.
For B23, the peptide exchange yield was 50 to 75%.
For B24, the peptide exchange yield was 50 to 75%.
B25 gave a peptide exchange yield of over 75%.
Binder B26 has a peptide exchange yield of over 75%.
Work on B27 yielded a peptide exchange yield of 20 to 49%.
With B28 the peptide exchange yield was over 75%.
For B29, the peptide exchange yield was 50 to 75%.
Work on B30 yielded a peptide exchange yield of 50 to 75%.
B31 gave a peptide exchange yield of over 75%.
Binder B32 has a peptide exchange yield of over 75%.
B33 was tested, and the peptide exchange yield was over 75%.
B34 showed a peptide exchange yield of 50 to 75%.
With B35 the peptide exchange yield was 50 to 75%.
B36 showed a peptide exchange yield of 50 to 75%.
With B37 the peptide exchange yield was over 75%.
Work on B38 yielded a peptide exchange yield of 50 to 75%.
With B39 the peptide exchange yield was over 75%.
In the case of B40, the peptide exchange yield is reported as 50 to 75%.
B41 gave a peptide exchange yield of over 75%.
B42 gave a peptide exchange yield of over 75%.
B43 gave a peptide exchange yield of 50 to 75%.
B44 gave a peptide exchange yield of over 75%.
B45 showed a peptide exchange yield of over 75%.
Work on B46 yielded a peptide exchange yield of over 75%.
Work on B47 yielded a peptide exchange yield of over 75%.
B48 was tested, and the peptide exchange yield was over 75%.
Work on B49 yielded a peptide exchange yield of over 75%.
With B50 the peptide exchange yield was over 75%.
B51 showed a peptide exchange yield of 50 to 75%.
For B52, the peptide exchange yield was 50 to 75%.
In the case of B53, the peptide exchange yield is reported as 50 to 75%.
In the case of B54, the peptide exchange yield is reported as 50 to 75%.

From patent US20220249633A1
